Sequences and labels used below:
B1: Transcriptional regulatory protein ComA (Bacillus subtilis), P14204 (parent)
chain: MKKILVIDDHPAVMEGTKTILETDSNLSVDCLSPEPSEQFIKQHDFSSYDLILMDLNLGGEVNGMELSKQILQENPHCKIIVYTGYEVEDYFEEAIRAGLHGAISKTESKEKITQYIYHVLNGEILVDFAYFKQLMTQQKTKPAPSSQKEQDVLTPRECLILQEVEKGFTNQEIADALHLSKRSIEYSLTSIFNKLNVGSRTEAVLIAKSDGVL
partner: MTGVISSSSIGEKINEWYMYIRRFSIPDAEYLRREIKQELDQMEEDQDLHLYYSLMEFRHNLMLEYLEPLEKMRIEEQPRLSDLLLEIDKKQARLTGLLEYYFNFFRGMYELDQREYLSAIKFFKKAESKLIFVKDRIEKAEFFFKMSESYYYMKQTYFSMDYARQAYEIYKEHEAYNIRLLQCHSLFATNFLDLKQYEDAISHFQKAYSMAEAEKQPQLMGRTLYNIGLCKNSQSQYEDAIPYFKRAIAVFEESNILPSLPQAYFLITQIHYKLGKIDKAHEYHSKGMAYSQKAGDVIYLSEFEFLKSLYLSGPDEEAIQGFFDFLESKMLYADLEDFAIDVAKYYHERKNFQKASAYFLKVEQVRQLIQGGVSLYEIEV
B2: Regulatory protein RapF (Bacillus subtilis), P71002 (parent)
chain: B1 partner
partner: B1 chain

The first test covers variants of B1. To be noted: with rapf_bacsu rapF.
Turning to R183A, the “effect of a mutation on the interaction” value is given as “decreasing interaction”.
Take T190A: the “effect of a mutation on the interaction” value was “decreasing interaction”.
In the case of N194A, the “effect of a mutation on the interaction” value was “decreasing interaction”.
Take Y187A: the “effect of a mutation on the interaction” value is listed as “decreasing interaction”.

Variants of B2 are the subject of the next test. To be noted: with cmpa_bacsu comA.
With L67A, the “effect of a mutation on the interaction” value is “disrupting interaction”.
Consider P27A, for which the “effect of a mutation on the interaction” value is given as “decreasing interaction”.
Regarding Q78A, the “effect of a mutation on the interaction” value is given as “decreasing interaction”.
On the same count and under the same terms, then D28A, with “disrupting interaction”; and F24A, with “disrupting interaction”.
